Measured values taken from US20230002480A1.

Legend:
Assay in all cases: cell-based or functional assay
[1] = molecular target: HIV-1 Env of pseudovirus CAAN5342.A2 (HIV-1)
[2] = molecular target: HIV-1 Env of pseudovirus T250-4 (HIV-1)
[3] = molecular target: HIV-1 Env of pseudovirus 1394C9G1(Rev-) (HIV-1)
[4] = molecular target: HIV-1 Env of pseudovirus 191084 B7-19 (HIV-1)
[5] = molecular target: HIV-1 Env of pseudovirus 231965.c01 (HIV-1)
[6] = molecular target: HIV-1 Env of pseudovirus REJO4541.67 (HIV-1)
[7] = molecular target: HIV-1 Env of pseudovirus ZM53M.PB12 (HIV-1)
[8] = molecular target: HIV-1 Env of pseudovirus 0260.v5.c36 (HIV-1)
[9] = molecular target: HIV-1 Env of pseudovirus BJOX010000.06.2 (HIV-1)
[10] = molecular target: HIV-1 Env of pseudovirus 0815.v3.c3 (HIV-1)
[11] = molecular target: HIV-1 Env of pseudovirus P0402_c2_11 (HIV-1)
[12] = molecular target: HIV-1 Env of pseudovirus WITO4160.33 (HIV-1)
[13] = molecular target: HIV-1 Env of pseudovirus Q23.17 (HIV-1)
[14] = molecular target: HIV-1 Env of pseudovirus HIV-16055-2.3 (HIV-1)
[15] = molecular target: HIV-1 Env of pseudovirus T278-50 (HIV-1)
[16] = molecular target: HIV-1 Env of pseudovirus 6952.v1.c20 (HIV-1)
[17] = molecular target: HIV-1 Env of pseudovirus THRO4156.18 (HIV-1)
[18] = molecular target: HIV-1 Env of pseudovirus Ce703010054_2A2 (HIV-1)
[19] = molecular target: HIV-1 Env of pseudovirus BF1266.431a (HIV-1)
[20] = molecular target: HIV-1 Env of pseudovirus 246F C1G (HIV-1)
[21] = molecular target: HIV-1 Env of pseudovirus 6480.v4.c25 (HIV-1)
[22] = molecular target: HIV-1 Env of pseudovirus BJOX015000.11.5 (HIV-1)
[23] = molecular target: HIV-1 Env of pseudovirus X1254_c3 (HIV-1)
[24] = molecular target: HIV-1 Env of pseudovirus SC422661.8 (HIV-1)
[25] = molecular target: HIV-1 Env of pseudovirus R3265.c06 (HIV-1)
[26] = molecular target: HIV-1 Env of pseudovirus BJOX025000.01.1 (HIV-1)
[27] = molecular target: HIV-1 Env of pseudovirus Du172.17 (HIV-1)
[28] = molecular target: HIV-1 Env of pseudovirus ZM197M.PB7 (HIV-1)
[29] = molecular target: HIV-1 Env of pseudovirus 3817.v2.c59 (HIV-1)
[30] = molecular target: HIV-1 Env of pseudovirus AC10.0.29 (HIV-1)
[31] = molecular target: HIV-1 Env of pseudovirus 7030102001E5(Rev-) (HIV-1)
[32] = molecular target: HIV-1 Env of pseudovirus 3016.v5.c45 (HIV-1)
[33] = molecular target: HIV-1 Env of pseudovirus X1193_c1 (HIV-1)
[34] = molecular target: HIV-1 Env of pseudovirus 89-F1_2_25 (HIV-1)
[35] = molecular target: HIV-1 Env of pseudovirus Du422.1 (HIV-1)
[36] = molecular target: HIV-1 Env of pseudovirus 6811.v7.c18 (HIV-1)

Question: How did the IC50 [1] turn out when PGDM1400 (antibody) was run?
Answer: Its IC50 is over 50 µg/mL.

Question: And the IC80 [1]?
Answer: Its IC80 is over 50 µg/mL.

Question: What about the IC50 [2] of the same substance?
Answer: Its IC50 is under 0.001 µg/mL.

Question: And the IC80 [2]?
Answer: Its IC80 is under 0.001 µg/mL.

Question: And the IC50 [3]?
Answer: The IC50 was under 0.001 µg/mL.

Question: What about the IC80 [3] of the same substance?
Answer: The IC80 was 0.004 µg/mL.

Question: What about the IC50 [4] of the same substance?
Answer: The IC50 was under 0.001 µg/mL.

Question: What about the IC80 [4] of the same substance?
Answer: The IC80 was 0.007 µg/mL.

Question: What about the IC50, titer in TZM.bl cells [5] of the same substance?
Answer: The IC50, titer in TZM.bl cells was 0.025 µg/mL.

Question: And the IC80, titer in TZM.bl cells [5]?
Answer: The IC80, titer in TZM.bl cells was 1.28 µg/mL.

Question: What about the IC50 [6] of the same substance?
Answer: The IC50 was 0.028 µg/mL.

Question: And the IC80 [6]?
Answer: The IC80 was 0.992 µg/mL.

Question: And the IC50 [7]?
Answer: The IC50 was 0.002 µg/mL.

Question: What about the IC80 [7] of the same substance?
Answer: The IC80 was 0.011 µg/mL.

Question: And the IC50 [8]?
Answer: Its IC50 is 0.033 µg/mL.

Question: And the IC80 [8]?
Answer: The IC80 was 0.175 µg/mL.

Question: What about the IC50, titer in TZM.bl cells [9] of the same substance?
Answer: Its IC50, titer in TZM.bl cells is 0.605 µg/mL.

Question: And the IC80, titer in TZM.bl cells [9]?
Answer: The IC80, titer in TZM.bl cells was 5.87 µg/mL.

Question: What about the IC50, titer in TZM.bl cells [10] of the same substance?
Answer: Its IC50, titer in TZM.bl cells is over 50 µg/mL.

Question: And the IC80, titer in TZM.bl cells [10]?
Answer: The IC80, titer in TZM.bl cells was over 50 µg/mL.

Question: And the IC50, titer in TZM.bl cells [11]?
Answer: The IC50, titer in TZM.bl cells was 0.01 µg/mL.

Question: What about the IC80, titer in TZM.bl cells [11] of the same substance?
Answer: The IC80, titer in TZM.bl cells was 0.033 µg/mL.

Question: And the IC50 [12]?
Answer: Its IC50 is under 0.001 µg/mL.

Question: What about the IC80 [12] of the same substance?
Answer: The IC80 was 0.008 µg/mL.

Question: What about the IC50 [13] of the same substance?
Answer: Its IC50 is under 0.001 µg/mL.

Question: And the IC80 [13]?
Answer: The IC80 was 0.003 µg/mL.

Question: What about the IC50 [14] of the same substance?
Answer: The IC50 was under 0.001 µg/mL.

Question: What about the IC80 [14] of the same substance?
Answer: The IC80 was 0.003 µg/mL.

Question: And the IC50, titer in TZM.bl cells [15]?
Answer: Its IC50, titer in TZM.bl cells is 0.574 µg/mL.

Question: What about the IC80, titer in TZM.bl cells [15] of the same substance?
Answer: The IC80, titer in TZM.bl cells was 4.94 µg/mL.

Question: And the IC50, titer in TZM.bl cells [16]?
Answer: The IC50, titer in TZM.bl cells was 0.501 µg/mL.

Question: What about the IC80, titer in TZM.bl cells [16] of the same substance?
Answer: Its IC80, titer in TZM.bl cells is 11.8 µg/mL.

Question: And the IC50 [17]?
Answer: The IC50 was 0.072 µg/mL.

Question: And the IC80 [17]?
Answer: The IC80 was 0.348 µg/mL.

Question: And the IC50 [18]?
Answer: Its IC50 is 0.015 µg/mL.

Question: What about the IC80 [18] of the same substance?
Answer: Its IC80 is 0.26 µg/mL.

Question: What about the IC50 [19] of the same substance?
Answer: The IC50 was 0.003 µg/mL.

Question: And the IC80 [19]?
Answer: Its IC80 is 0.011 µg/mL.

Question: And the IC50 [20]?
Answer: The IC50 was over 50 µg/mL.

Question: And the IC80 [20]?
Answer: Its IC80 is over 50 µg/mL.

Question: And the IC50, titer in TZM.bl cells [21]?
Answer: The IC50, titer in TZM.bl cells was over 50 µg/mL.

Question: And the IC80, titer in TZM.bl cells [21]?
Answer: The IC80, titer in TZM.bl cells was over 50 µg/mL.

Question: What about the IC50, titer in TZM.bl cells [22] of the same substance?
Answer: Its IC50, titer in TZM.bl cells is 0.52 µg/mL.

Question: And the IC80, titer in TZM.bl cells [22]?
Answer: Its IC80, titer in TZM.bl cells is 10.6 µg/mL.

Question: What about the IC50, titer in TZM.bl cells [23] of the same substance?
Answer: The IC50, titer in TZM.bl cells was over 50 µg/mL.

Question: What about the IC80, titer in TZM.bl cells [23] of the same substance?
Answer: The IC80, titer in TZM.bl cells was over 50 µg/mL.

Question: And the IC50 [24]?
Answer: The IC50 was 0.436 µg/mL.

Question: What about the IC80 [24] of the same substance?
Answer: Its IC80 is 6.53 µg/mL.

Question: What about the IC50, titer in TZM.bl cells [25] of the same substance?
Answer: Its IC50, titer in TZM.bl cells is 0.013 µg/mL.

Question: What about the IC80, titer in TZM.bl cells [25] of the same substance?
Answer: The IC80, titer in TZM.bl cells was 0.041 µg/mL.

Question: What about the IC50, titer in TZM.bl cells [26] of the same substance?
Answer: The IC50, titer in TZM.bl cells was 0.087 µg/mL.

Question: What about the IC80, titer in TZM.bl cells [26] of the same substance?
Answer: Its IC80, titer in TZM.bl cells is 0.573 µg/mL.

Question: And the IC50 [27]?
Answer: The IC50 was 5.18 µg/mL.

Question: And the IC80 [27]?
Answer: The IC80 was 22 µg/mL.

Question: And the IC50 [28]?
Answer: Its IC50 is 0.063 µg/mL.

Question: And the IC80 [28]?
Answer: Its IC80 is 0.285 µg/mL.

Question: What about the IC50, titer in TZM.bl cells [29] of the same substance?
Answer: The IC50, titer in TZM.bl cells was over 50 µg/mL.

Question: What about the IC80, titer in TZM.bl cells [29] of the same substance?
Answer: Its IC80, titer in TZM.bl cells is over 50 µg/mL.

Question: What about the IC50 [30] of the same substance?
Answer: The IC50 was 0.105 µg/mL.

Question: What about the IC80 [30] of the same substance?
Answer: The IC80 was 0.869 µg/mL.

Question: What about the IC50 [31] of the same substance?
Answer: Its IC50 is over 50 µg/mL.

Question: And the IC80 [31]?
Answer: The IC80 was over 50 µg/mL.

Question: And the IC50, titer in TZM.bl cells [32]?
Answer: Its IC50, titer in TZM.bl cells is over 50 µg/mL.

Question: And the IC80, titer in TZM.bl cells [32]?
Answer: The IC80, titer in TZM.bl cells was over 50 µg/mL.

Question: What about the IC50, titer in TZM.bl cells [33] of the same substance?
Answer: The IC50, titer in TZM.bl cells was 0.219 µg/mL.

Question: What about the IC80, titer in TZM.bl cells [33] of the same substance?
Answer: Its IC80, titer in TZM.bl cells is 0.781 µg/mL.

Question: What about the IC50, titer in TZM.bl cells [34] of the same substance?
Answer: The IC50, titer in TZM.bl cells was 0.001 µg/mL.

Question: And the IC80, titer in TZM.bl cells [34]?
Answer: The IC80, titer in TZM.bl cells was 0.005 µg/mL.

Question: And the IC50 [35]?
Answer: Its IC50 is 0.694 µg/mL.

Question: And the IC80 [35]?
Answer: The IC80 was over 50 µg/mL.

Question: What about the IC50, titer in TZM.bl cells [36] of the same substance?
Answer: The IC50, titer in TZM.bl cells was over 50 µg/mL.

Question: And the IC80, titer in TZM.bl cells [36]?
Answer: The IC80, titer in TZM.bl cells was over 50 µg/mL.
